In US20110178020A1 (UNIVERSITY OF LOUISVILLE RESEARCH FOUNDATION, published 2011):

Target: T1, GST-VAMP-2 (VAMP-2 generated as a GST fusion protein, bound to glutathione beads) (UniProt P63027 1-94)
T1 construct: not shown: glutathione S-transferase (GST) tag
Assay: GST pull down, immunoblot for the HA tag

T1 sequence (P63027 1-94): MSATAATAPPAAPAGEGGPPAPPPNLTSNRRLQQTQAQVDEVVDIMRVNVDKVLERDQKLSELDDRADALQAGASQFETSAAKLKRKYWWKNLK

B1: TAT-HA-SNAP-23 fusion polypeptide (TAT cell-penetrating polypeptide, hemagglutinin affinity tag, and 78 amino acids from the amino-terminus of human SNAP-23) (other)
chain: MRGSHHHHHHGMASMTGGQQMGRDLYDDDDKDRWGSKLGYGRKKRRQRRRGGSTMSGYPYDVPDYAGSMDNLSSEEIQQRAHQITDESLESTRRILGLAIESQDAGIKTITMLDEQKEQLNRIEEGLDQINKDMRETEKTLTELNK
notes: also called TAT-SNAP-23
binding result: no binding
